Test results taken from the supplement of paper PMC7125110.
± gives the standard error. For part of these data: Fewer inactive variants are shown than the library holds.

B1: glmS ribozyme (parent)
chain: AUAAAAGCGCCAGAACUACAGAAAUGUAGUUGACGAGGAGGAGGUUUAUCGAAUUUUCGGCGGAUGCCUCCAAA

Legend:
Conditions in all cases: with glucosamine-6-phosphate
[1] = variants of: B1; assay: kcat; higher = faster cleavage; RNA array
Summary of the method: (§1)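 Glucosamine-6-phosphate in HEPES/KCl/Mg(OAc)2 buffer, at 40 μM to 10 mM, was flowed over barcoded ribozyme variants transcribed in situ by E. coli RNA polymerase on sequenced MiSeq chips. Tracking was through a hybridised Cy3 probe at 37 °C. kobs, kcat and KM came from exponential decay fits and weighted Michaelis–Menten fits of normalised per-tile medians.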

[2] = variants of: B1; assay: self-cleavage kobs at 2500 uM GlcN6P; higher = faster cleavage; RNA array
Summary of the method: as §1

[3] = variants of: B1; assay: KM; higher = weaker cofactor use; RNA array
Summary of the method: as §1

[4] = variants of: B1; assay: self-cleavage kobs at 160 uM GlcN6P; higher = faster cleavage; RNA array
Summary of the method: as §1

[5] = variants of: B1; assay: self-cleavage kobs at 640 uM GlcN6P; higher = faster cleavage; RNA array
Summary of the method: as §1

[6] = variants of: B1; assay: self-cleavage kobs at 10000 uM GlcN6P; higher = faster cleavage; RNA array
Summary of the method: as §1

[7] = variants of: B1; assay: self-cleavage kobs at 40 uM GlcN6P; higher = faster cleavage; RNA array
Summary of the method: as §1

Variant | kcat [1] [s⁻¹] | self-cleavage kobs at 2500 uM GlcN6P [2] [s⁻¹] | KM [3] [µM] | self-cleavage kobs at 160 uM GlcN6P [4] [s⁻¹] | self-cleavage kobs at 640 uM GlcN6P [5] [s⁻¹] | self-cleavage kobs at 10000 uM GlcN6P [6] [s⁻¹] | self-cleavage kobs at 40 uM GlcN6P [7] [s⁻¹]
G29U G38C C58G C68A C71A | 5.03e-05 ± 2.1e-05 | 8.03e-05 ± 4e-05 |  |  |  |  | 
C16G A64C | 2.1e-05 ± 1.7e-06 |  | 9060 ± 1500 |  |  |  | 
C16G C71G | 0.000131 ± 1.2e-05 | 0.000114 ± 1.3e-05 | 303 ± 130 | 6.73e-05 ± 2.1e-05 | 8e-05 ± 1.3e-05 | 0.00014 ± 1.8e-05 | 
C16G C71A | 0.000641 ± 0.00015 | 0.000462 ± 0.00011 | 2900 ± 1000 |  | 0.000111 ± 1.9e-05 | 0.000465 ± 8.7e-05 | 
G29A C71G | 0.00019 ± 3.4e-05 | 0.000117 ± 2.3e-05 |  |  | 9.26e-05 ± 2.3e-05 | 0.000204 ± 3.3e-05 | 
U31A A52G C68A | 1.75e-05 ± 4.6e-06 |  |  |  |  |  | 
A15U U49C | < 1e-05 |  |  |  | < 1e-05 | < 1e-05 | < 1e-05
A15U U46C | 0.000336 ± 2.6e-05 | 0.000249 ± 3.3e-05 | 1290 ± 210 | 2.98e-05 ± 1.3e-05 | 0.000111 ± 1.1e-05 | 0.000288 ± 2.9e-05 | 
U30A U55A | 0.0085 ± 0.0022 | 0.00803 ± 0.0017 | 1850 ± 740 | 0.000501 ± 0.00012 |  | 0.00686 ± 0.00088 | 0.000212 ± 3.2e-05
